Measured values taken from patent US20100021421A1 (MCGILL UNIVERSITY, published 2010).
Each block holds one binder with its values, some of them ahead of it.

Assays:
[1] = biological target: T1, recombinant mouse IL-15Ralpha-Fc (mouse, UniProt Q60819 33-205); assay: SPR (BIACORE 3000), rIL-15Rα-Fc amine-coupled to CM5 chip, analyte injected, 1:1 interaction model; purified GIFT15 as analyte
T1 construct: Bought from R&D Systems and amine-coupled to a CM5 chip (1300 RU); also called rmIL-15Rα-Fc; rIL-15Rα-Fc; not shown: Fc part of the commercial fusion
T1 sequence (looked up): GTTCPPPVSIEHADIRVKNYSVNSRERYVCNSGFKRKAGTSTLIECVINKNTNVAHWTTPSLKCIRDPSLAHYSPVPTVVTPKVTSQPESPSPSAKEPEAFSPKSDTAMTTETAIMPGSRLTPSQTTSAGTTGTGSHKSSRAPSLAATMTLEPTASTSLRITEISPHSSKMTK
Procedure: mGIFT15 was purified by immunoaffinity column packed using CNBr-sepharose (Amersham, N.J., USA) according to manufacturer's instructions. The binding interaction between mGIFT15 and rmIL-15Rα-Fc was examined in real-time using a BIACORE 3000 with research-grade CM5 sensor chips (Biacore AB, Uppsala, Sweden). Based on the manufacturer's recommendations, active CM5 surfaces were prepared by immobilizing rIL-15Rα-Fc (10 μg/mL in 10 mM sodium acetate pH 5.0) using the Amine Coupling Kit (Biacore AB) and HBS-M running buffer. Corresponding reference surfaces were prepared in the similar manner in the absence of any ligand. As a positive control, rIL-15 was injected at 50 μL/min (180 sec association+180 sec dissociation) over the reference and amine-coupled rIL-15Rα-Fc surfaces (1300 RU). Regeneration was achieved using two 30 second pulses of HBS-M containing 0.5 M NaCl, 50 mM EDTA, and 0.05% (v/v) TritonX-100 or Empigen. For the test sample, purified mGIFT15 was injected over the same sensor chip surfaces and regenerated in an identical manner. All binding data presented were “double-referenced” and analyzed according to a 1:1 interaction model using BIAevaluation 4.1 (Biacore AB).

[2] = biological target: T2, recombinant mouse IL-15Ralpha-Fc (mouse), Q60819; assay: SPR (BIACORE 3000), rIL-15Rα-Fc amine-coupled to CM5 chip, analyte injected, 1:1 interaction model; rIL-15 as analyte; conditions: remark: other sources report otherwise
T2 chain: T1 sequence (looked up)

Kd [1]: 1.4 nM
B1: mouse GM-CSF and IL-15 fusion protein (fusokine) mGIFT15 (ligand)
chain: APTRSPITVTRPWKHVEAIKEALNLLDDMPVTLNEEVEVVSNEFSFKKLTCVQTRLKIFEQGLRGNFTKLKGALNMTASYYQTYCPPTPETDCETQVTTYADFIDSLKTFLTDDPGRRAIMKILKPYMRNTSISCYLCFLLNSHFLTEAGIHVFILGCVSVGLPKTEANWIDVRYDLEKIESLIQSIHIDTTLYTDSDFHPSCKVTAMNCFLLELQVILHEYSNMTLNETVRNVLYLANSTLSSNKNVAESGCKECEELEEKTFTEFLQSFIRIVQMFINTS
notes: also called purified GIFT15; purified mGIFT15

Kd [2]: 3 nM
B2: recombinant mouse IL-15, P48346 49-162 (ligand, UniProt P48346 49-162, looked up)
chain: NWIDVRYDLEKIESLIQSIHIDTTLYTDSDFHPSCKVTAMNCFLLELQVILHEYSNMTLNETVRNVLYLANSTLSSNKNVAESGCKECEELEEKTFTEFLQSFIRIVQMFINTS
